± gives the standard deviation.
Assay: protein stability index of a GFP-peptide fusion (GPS, HEK-293T) (PSI 1-6); higher = more stable
[1] = treatment: DMSO, c terminus: a fixed tail appended
[2] = treatment: MLN4924 1 uM, 8 h, c terminus: a fixed tail appended
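Further: 24-mer peptide tiles fused after GFP, lentivirally expressed, FACS-sorted into six equal bins by GFP/DsRed ratio, decoded by Illumina sequencing, PSI is the read-weighted mean bin number.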

Sequence TYSLVPKKKTKVLKQRTVIEMFKS [EHMT1] has a protein stability index [1] of 2.41 ± 0.21 and a protein stability index [2] of 2.58 ± 0.34.
VASGYHYGVASCEACKAFFKRTIQ [ESRRA] gave a protein stability index [1] of 2.29 ± 0.27 and a protein stability index [2] of 2.47 ± 0.48.
For VCEQCLQILYESCPKYKFISCPTC [RNF208], the protein stability index [1] was 4.06 ± 0.29 and the protein stability index [2] was 4.09 ± 0.5.
For VCRARPRACSHLIRLMQRCWQGDP [RIPK4], the protein stability index [1] was 2.21 ± 1.1 and the protein stability index [2] was 2.86 ± 0.35.
Sequence VCSILLGTSTLLVWVGVIRYLTFF [MCOLN1] has a protein stability index [1] of 3.3 ± 0.42 and a protein stability index [2] of 3.02 ± 0.079.
VDGRHLLRTLSRAKFWPRRRFNFF [DNAAF3] showed a protein stability index [1] of 1.92 ± 0.23 and a protein stability index [2] of 2.17 ± 0.11.
Work on VDHHGTAQLQALRQKEVDFCISLL [INTS3] yielded a protein stability index [1] of 2.23 ± 0.2 and a protein stability index [2] of 2.35 ± 0.45.
In the case of VDKYVNSFVLKNFPALLSTGEFLK [KLHL13], the protein stability index [1] is reported as 2.01 ± 0.45 and the protein stability index [2] is reported as 2.1 ± 0.6.
Work on VDQTGVSGGVASFICQATGDPRPK [PTPRD] yielded a protein stability index [1] of 4.62 ± 0.17 and a protein stability index [2] of 4.81 ± 0.2.
Work on VDQYLALPDVSLGRYAYVRGGGDP [MCOLN1] yielded a protein stability index [1] of 3.19 ± 0.26 and a protein stability index [2] of 3.03 ± 0.4.
VDSFETQRNGLVFIYDMCGSNYAN [PTPN9] showed a protein stability index [1] of 2.23 ± 0.24 and a protein stability index [2] of 2.05 ± 0.28.
VEESEASSSVSISHSASATGNVCI [LMNB1] showed a protein stability index [1] of 4.84 ± 0.11 and a protein stability index [2] of 4.71 ± 0.12.
Sequence VELLHNTSYTRQACLVSCFQQLMV [SCNN1D] has a protein stability index [1] of 2.39 ± 0.78 and a protein stability index [2] of 2.5 ± 0.94.
Work on VENELMISYLMFLQILVYFSFMSW [FAM98B] yielded a protein stability index [1] of 2.94 ± 0.45 and a protein stability index [2] of 3.14 ± 0.05.
For VFFAYAQLGYLLFGTQVENFSTFI [PKD2L1], the protein stability index [1] was 3.33 ± 0.054 and the protein stability index [2] was 2.71 ± 0.72.
Work on VGEVPYWVLEPVLEGWRPDQLYRR [ELOA2] yielded a protein stability index [1] of 1.97 ± 0.33 and a protein stability index [2] of 2.32 ± 0.33.
For VGGEAVEVEEVENVQTEFPGEDEN [TRIM55], the protein stability index [1] was 5.74 ± 0.2 and the protein stability index [2] was 5.61 ± 0.34.
In the case of VGRTVLDMLIREVVEKRLCMYEHG [RSPH3], the protein stability index [1] is reported as 2.89 ± 0.52 and the protein stability index [2] is reported as 3.39 ± 0.14.
For VGSDPLIKSDEECRDLVDEAKNYL [KLHL20], the protein stability index [1] was 5.2 ± 0.11 and the protein stability index [2] was 5.09 ± 0.28.
For VGVAGLISPWNLPLYLLTWKIAPA [ALDH8A1], the protein stability index [1] was 2.92 ± 0.97 and the protein stability index [2] was 2.88 ± 0.95.
Work on VIRKNIVKKCLELFSELAEDKENY [HSP90AB1] yielded a protein stability index [1] of 2.33 ± 0.046.
VISLEKLNVGNERYVFEAVIRWIA [GAN] showed a protein stability index [1] of 2.38 ± 0.38 and a protein stability index [2] of 2.09 ± 0.29.
Sequence VKMDQKSKHLKEMYQELMEMCHKP [TRIM43] has a protein stability index [1] of 3.03 ± 0.15 and a protein stability index [2] of 3.13 ± 0.28.
With VKSVSPQGNSVDRMAAPRAEALFD [NCF4] the protein stability index [1] was 4.35 ± 0.14 and the protein stability index [2] was 4.71 ± 0.14.
In the case of VLENLEDSCVLTGPDDSLWDKHAC [TRIB3], the protein stability index [1] is reported as 3.69 ± 0.16 and the protein stability index [2] is reported as 3.87 ± 0.26.
With VLGVADGVGGWRDYGVDPSQFSGT [PPTC7] the protein stability index [1] was 3.51 ± 0.24 and the protein stability index [2] was 4 ± 0.088.
Work on VLICVIVFIIILFIVLFATGAFS [VAMP8] yielded a protein stability index (treatment: DMSO, c terminus: native) of 4.42 ± 0.23 and a protein stability index (treatment: MLN4924 1 uM, 8 h, c terminus: native) of 4.34 ± 0.15.
In the case of VLRAGDREDITEPAICALRHLTSR [CTNNB1], the protein stability index [1] is reported as 3.39 ± 0.39 and the protein stability index [2] is reported as 3.67 ± 0.18.
Sequence VLSCEAATQTERRLDLAAVTLRRG [FAM189A2] has a protein stability index [1] of 4.25 ± 0.19 and a protein stability index [2] of 4.28 ± 0.34.
In the case of VLVHVQKWDGKSTTIKRKREDDKL [FABP4], the protein stability index [1] is reported as 2.85 ± 0.46 and the protein stability index [2] is reported as 2.85 ± 0.4.
VLVLIFNAAKTCPTMPALFSDHTF [INTS4] gave a protein stability index [1] of 3.16 ± 0.42 and a protein stability index [2] of 3.16 ± 0.48.
Sequence VMDYLPISSTSTKRTYWPDLDAKI [PLD5] has a protein stability index [1] of 2.77 ± 0.19 and a protein stability index [2] of 2.85 ± 0.1.
VMSGVKCSGTELSLAHCRHDGEDV [LOXL2] gave a protein stability index [1] of 4.95 ± 0.21 and a protein stability index [2] of 4.89 ± 0.24.
Work on VNKYYPPDFNPEKHGSLNRYHNSH [YJU2B] yielded a protein stability index [1] of 3.41 ± 0.21 and a protein stability index [2] of 3.21 ± 0.39.
Work on VNYSDPNDADKAINTLNGLKLQTK [ELAVL3] yielded a protein stability index [1] of 4.66 ± 0.2 and a protein stability index [2] of 4.62 ± 0.12.
With VPVQPLLPESLARSLLPSTEYQKQ [FBF1] the protein stability index [1] was 4.18 ± 0.18 and the protein stability index [2] was 4.58 ± 0.28.
VQTWTQPRLCYLVKEGGSYGFSLK [PDZK1] gave a protein stability index [1] of 2.13 ± 0.24 and a protein stability index [2] of 2 ± 0.33.
With VQVSPEFKDSAGKSPTGLKLKNDT [ZNF75A] the protein stability index [1] was 4.96 ± 0.23 and the protein stability index [2] was 4.91 ± 0.15.
Sequence VRTLSEPPDKGEEQVNFCESSNDF [ZBTB22] has a protein stability index [1] of 5.14 ± 0.25 and a protein stability index [2] of 5.26 ± 0.39.
In the case of VRVLESLLVSLVTTVVVFVASMVL [CLCN6], the protein stability index [1] is reported as 3.13 ± 0.4 and the protein stability index [2] is reported as 3.3 ± 0.34.
For VSQAVEGPEELSRSSSESKLPSSG [RIPK4], the protein stability index [1] was 5.21 ± 0.62 and the protein stability index [2] was 5.06 ± 0.58.
VSRRAAAAAATVLLRTARVRRECW [SLC19A2] gave a protein stability index [1] of 2.58 ± 0.17 and a protein stability index [2] of 2.99 ± 0.36.
Sequence VSSAVSPSIIPQEDPSQQFLQQSL [INTS4] has a protein stability index [1] of 4.2 ± 0.24 and a protein stability index [2] of 4.41 ± 0.083.
VTGREGFPTDAPYPTTLGKDRECQ [ZNF8] gave a protein stability index [1] of 4.74 ± 0.13 and a protein stability index [2] of 4.8 ± 0.32.
VTGYGINGTGDSNDFWRIEVVNRK [POMT2] gave a protein stability index [1] of 3.29 ± 0.21 and a protein stability index [2] of 3.39 ± 0.17.

Source: the supplement of paper PMC10567573
